{
  "source": "patent US20180000925",
  "proteins": {"B1": {"name": "CD45 (Enzo Life Sciences) (protein)", "chain": "SCNLDEQQELVERDDEKQLMNVEPIHADILLETYKRKIADEGRLFLAEFQSIPRVFSKFPIKEARKPFNQNKNRYVDILPYDYNRVELSEINGDAGSNYINASYIDGFKEPRKYIAAQGPRDETVDDFWRMIWEQKATVIVMVTRCEEGNRNKCAEYWPSMEEGTRAFGDVVVKINQHKRCPDYIIQKLNIVNKKEKATGREVTHIQFTSWPDHGVPEDPHLLLKLRRRVNAFSNFFSGPIVVHCSAGVGRTGTYIGIDAMLEGLEAENKVDVYGYVVKLRRQRCLMVQVEAQYILIHQALVEYNQFGETEVNLSELHPYLHNMKKRDPPSEPSPLEAEFQRLPSYRSWRTQHIGNQEENKSKNRNSNVIPYDYNRVPLKHELEMSKESEHDSDESSDDDSDSEEPSKYINASFIMSYWKPEVMIAAQGPLKETIGDFWQMIFQRKVKVIVMLTELKHGDQEICAQYWGEGKQTYGDIEVDLKDTDKSSTYTLRVFELRHSKRKDSRTVYQYQYTNWSVEQLPAEPKELISMIQVVKQKLPQKNSSEGNKHHKSTPLLIHCRDGSQQTGIFCALLNLLESAETEEVVDIFQVVKALRKARPGMVSTFEQYQFLYDVIASTYPAQNGQVKKNNHQEDKIEFDNEVDKVKQDANCVNPLGAPEKLPEAKEQAEGSEPTSGTEGPEHSVNGPASPALNQGS"}},
  "target": "recombinant HCV E2 protein (eEnzyme)",
  "data": [
    {"protein": "B1", "values": [
      {"measurement": "dephosphorylation in an in vitro reaction (phosphotyrosine immunoblot)", "result": "dephosphorylated by CD45"}
    ]}
  ]
}
